Here are results for 6 sequences from the Immune Epitope Database (IEDB).

pKd: −log10 of the molar value. Where only a bound is given, the exact number is not on record here.

The target of experiment [1] is HLA-A*02:03. Put plainly: IEDB peptide-MHC binding, purified MHC/direct/fluorescence; filed as Kd, often an IC50 or EC50 that approximates it; ≥ and ≤ were set here for values at or beyond the usual limits of such assays.
In experiment [2] the target is HLA-A*02:11. Described as above.
The target in experiment [3] is HLA-A*02:12. The experiment is described as above.
The target of experiment [4] is HLA-A*02:16. The description is as above.
Experiment [5] deals with HLA-A*02:19. Described as above.
In experiment [6] the target is HLA-A*03:01. The description is as above.
The target of experiment [7] is HLA-A*11:01. Described as above.
Experiment [8] deals with HLA-A*23:01. The experiment is described as above.
The target in experiment [9] is HLA-A*24:03. The description is as above.
For experiment [10], the target named is HLA-A*29:02. Described as above.
Experiment [11] addresses HLA-A*68:02. The experiment is described as above.
Experiment [12] deals with HLA-A*02:01. The experiment can be described thus: IEDB peptide-MHC binding, purified MHC/competitive/fluorescence; filed as Kd, often an IC50 or EC50 that approximates it; ≥ and ≤ were set here for values at or beyond the usual limits of such assays.
Experiment [13] concerns the target HLA-A*26:01. The description is as above.
In experiment [14] the target is HLA-A*69:01. The description is as above.
The target of experiment [15] is HLA-B*15:17. Described as above.
In experiment [16] the target is HLA-B*18:01. Described as above.
Experiment [17] concerns the target HLA-B*27:03. Described as above.
Experiment [18] has as its target HLA-B*39:01. Described as above.
The target in experiment [19] is HLA-B*46:01. The experiment is described as above.
Experiment [20] has as its target HLA-B*51:01. Described as above.
In experiment [21] the target is HLA-B*57:01. The experiment is described as above.
The target in experiment [22] is HLA-B*07:02. The experiment can be described thus: IEDB peptide-MHC binding, purified MHC/direct/fluorescence; filed as Kd, often an IC50 or EC50 that approximates it; ≥ and ≤ were set here for values at or beyond the usual limits of such assays. The conditions noted are these: source organism: Zaire ebolavirus.
Experiment [23] addresses HLA-B*15:01. The experiment can be described thus: IEDB peptide-MHC binding, purified MHC/competitive/fluorescence; filed as Kd, often an IC50 or EC50 that approximates it; ≥ and ≤ were set here for values at or beyond the usual limits of such assays.
The target in experiment [24] is HLA-B*35:01. Described as above. Conditions: source organism: Zaire ebolavirus.
Experiment [25] addresses HLA-A*31:01. Described as above. The conditions noted are these: source organism: Orthohantavirus tulaense.
The target in experiment [26] is HLA-A*26:01. The experiment can be described thus: IEDB peptide-MHC binding, purified MHC/direct/fluorescence; filed as Kd, often an IC50 or EC50 that approximates it; ≥ and ≤ were set here for values at or beyond the usual limits of such assays. Conditions: source organism: Sudan ebolavirus - Uganda (2000).
Setting [27] is: source organism: Vibrio vulnificus CMCP6.
Setting [28] is: source organism: Vibrio vulnificus YJ016.
Where [29] appears, read: source organism: Ravn virus - Ravn, Kenya, 1987.
Setting [30] is: source organism: Zaire ebolavirus.
[31] abbreviates: source organism: Orthohantavirus tulaense.
Setting [32] is: source organism: Bacillus cereus NVH0597-99.
[33] abbreviates: source organism: Bacillus thuringiensis serovar israelensis ATCC 35646.

One may read the pKd as the Kd on a negative log10 scale, so that one unit is a factor of ten. A lower pKd goes with a large Kd. On to SVMSTFFWE, for which the pKd in [1] (setting [27]), in experiment [2] (setting [27]), in [3] (setting [27]), in experiment [4] (setting [27]), in experiment [5] (setting [27]) and in [6] (setting [27]) was ≤ 4.70 throughout. Also, the negative-log Kd (pKd) was 6.46 in experiment [7] (setting [27]); ≤ 4.70 in experiment [8] (setting [27]); ≤ 4.70 in [9] (setting [27]); ≤ 4.70 in experiment [10] (setting [27]); ≤ 4.70 in experiment [11] (setting [27]); ≤ 4.70 in experiment [12] (setting [28]). Besides, the negative logarithm of the Kd (pKd) in [13] (setting [28]), in experiment [14] (setting [28]), in [15] (setting [28]), in experiment [16] (setting [28]), in experiment [17] (setting [28]) and in experiment [18] (setting [28]) was ≤ 4.70 throughout. For the same sequence, the pKd in experiment [19] (setting [28]), in experiment [20] (setting [28]) and in experiment [21] (setting [28]) was ≤ 4.70 throughout.

With FPSNMMVVT, the negative-log Kd (pKd) in experiment [1] (setting [29]), in experiment [2] (setting [29]), in [3] (setting [29]), in [4] (setting [29]), in experiment [5] (setting [29]) and in [6] (setting [29]) was ≤ 4.70 throughout. Also, the negative-log Kd (pKd) is ≤ 4.70 in experiment [8] (setting [29]); ≤ 4.70 in experiment [9] (setting [29]); ≤ 4.70 in [10] (setting [29]); ≤ 4.70 in [11] (setting [29]); 6.12 in experiment [22]; ≤ 4.70 in experiment [12] (setting [30]). Besides, the pKd in experiment [13] (setting [30]), in experiment [14] (setting [30]), in experiment [23] (setting [30]), in experiment [15] (setting [30]), in [16] (setting [30]) and in experiment [17] (setting [30]) was ≤ 4.70 each time. Further, the pKd in experiment [24] was 9.40; in experiment [18] (setting [30]), ≤ 4.70; in experiment [19] (setting [30]), ≤ 4.70; in experiment [20] (setting [30]), ≤ 4.70; in experiment [21] (setting [30]), ≤ 4.70.

On to SLMSRVVYK, for which the negative logarithm of the Kd (pKd) in experiment [1] (setting [31]) was ≤ 4.70; in [3] (setting [31]) it was ≤ 4.70; in experiment [4] (setting [31]) it was ≤ 4.70; in experiment [5] (setting [31]), ≤ 4.70; in experiment [6] (source organism: Orthohantavirus prospectense) it was 7.11; in experiment [8] (setting [31]), ≤ 4.70. The pKd was ≤ 4.70 in experiment [9] (setting [31]); ≤ 4.70 in [10] (setting [31]); ≤ 4.70 in experiment [11] (setting [31]); ≤ 4.70 in experiment [13] (setting [31]); 8.51 in experiment [25]; ≤ 4.70 in [14] (setting [31]). For the same sequence, the negative logarithm of the Kd (pKd) in [23] (setting [31]), in experiment [15] (setting [31]), in [16] (setting [31]), in experiment [17] (setting [31]), in experiment [18] (setting [31]) and in experiment [19] (setting [31]) was ≤ 4.70 in each case. The pKd in experiment [20] (setting [31]) and in experiment [21] (setting [31]) was ≤ 4.70 each time.

Regarding ATAAATEAY, the pKd in experiment [1] (setting [30]), in experiment [2] (setting [30]), in experiment [3] (setting [30]), in experiment [4] (setting [30]), in experiment [5] (setting [30]) and in experiment [6] (setting [30]) was ≤ 4.70 throughout. The pKd was ≤ 4.70 in experiment [8] (setting [30]); ≤ 4.70 in [9] (setting [30]); 6.66 in experiment [26]; ≤ 4.70 in experiment [11] (setting [30]); ≤ 4.70 in experiment [12] (setting [30]); ≤ 4.70 in experiment [14] (setting [30]). Moreover, the pKd in [16] (setting [30]), in experiment [17] (setting [30]), in experiment [18] (setting [30]), in experiment [19] (setting [30]) and in experiment [21] (setting [30]) was ≤ 4.70 throughout.

ITMYVAFEQ: the pKd in [1] (setting [32]), in [2] (setting [32]), in [3] (setting [32]), in experiment [4] (setting [32]), in experiment [5] (setting [32]) and in [6] (setting [32]) was ≤ 4.70 each time. The negative logarithm of the Kd (pKd) in experiment [7] (setting [32]), in [8] (setting [32]), in [9] (setting [32]), in experiment [10] (setting [32]), in [11] (setting [32]) and in experiment [12] (setting [33]) was ≤ 4.70 in each case. Besides, the pKd in experiment [13] (setting [33]), in experiment [14] (setting [33]), in experiment [15] (setting [33]), in experiment [16] (setting [33]), in experiment [17] (setting [33]) and in experiment [18] (setting [33]) was ≤ 4.70 each time. For the same sequence, the negative-log Kd (pKd) in experiment [19] (setting [33]), in experiment [20] (setting [33]) and in [21] (setting [33]) was ≤ 4.70 each time.

Regarding GLSFLNPEK, the pKd in experiment [1] (setting [29]) was ≤ 4.70; in [3] (setting [29]), ≤ 4.70; in experiment [5] (setting [29]), ≤ 4.70; in experiment [6] (source organism: Sudan ebolavirus - Maleo (1979)), 6.82; in [8] (setting [29]), ≤ 4.70; in experiment [9] (setting [29]), ≤ 4.70. Besides, the pKd in experiment [11] (setting [29]), in [13] (setting [30]), in experiment [14] (setting [30]), in experiment [23] (setting [30]), in experiment [15] (setting [30]) and in experiment [16] (setting [30]) was ≤ 4.70 in each case. The pKd in [17] (setting [30]), in experiment [18] (setting [30]), in experiment [19] (setting [30]), in [20] (setting [30]) and in experiment [21] (setting [30]) was ≤ 4.70 each time.
